“And” between values parts separate entries of the source, which are not always exact repeats. Equal values may be shown once.
Columns and labels:
[1] = molecular target: active TGFβ generated by positive B9F clones (rat); assay: cell-based or functional assay
[2] = molecular target: endogenous latent TGFβ secreted by B9F cells (latent TGFβ1, 2 and 3) (rat); assay: cell-based or functional assay

Row | Substance | luciferase activity of TMLC co-culture with positive clones, with against without the TGFβ inhibitor (LAP) (fraction of the value without inhibitor) [1] | rightward shift in GFP fluorescence of B9F reporter cells (percent of cells in the bright gate) [2] [%]
1 | Recombinant simian TGFβ1 LAP (from UniProt P09533 30-278) | 0.33 and 0.5 | –
2 | integrin ανβ6 on B9F reporter cells (retrovirally expressed β6-integrin subunit paired with the endogenously expressed αν-integrin subunit) (receptor) | – | 48
3 | integrin ανβ8 on B9F reporter cells (retrovirally expressed β8-integrin subunit paired with the endogenously expressed αν-integrin subunit) (receptor) | – | 25
